Measured values taken from patent US20130064834A1 (published 2013).

What was measured:
[1] = target: T1, hPCSK9(R215H) (human, UniProt Q8NBP7 31-692); test: ELISA, mAb coated, variant 0-5 nM
T1 construct: mmh-tagged variant hPCSK9
Method: (§1) Anti-PCSK9 mAbs were coated on a 96-well plate overnight at 4° C.

[2] = target: T2, hPCSK9(D129G) (human, UniProt Q8NBP7 31-692); test: ELISA, mAb coated, variant 0-5 nM
T2 construct: mmh-tagged variant hPCSK9
Method: as §1

[3] = target: T3, hPCSK9(R357H) (human, UniProt Q8NBP7 31-692); test: ELISA, mAb coated, variant 0-5 nM
T3 construct: mmh-tagged variant hPCSK9
Method: as §1

[4] = target: T4, hPCSK9(E197R) (human, UniProt Q8NBP7 31-692); test: ELISA, mAb coated, variant 0-5 nM
T4 construct: mmh-tagged variant hPCSK9
Method: as §1

[5] = target: T5, hPCSK9(A341R) (human, UniProt Q8NBP7 31-692); test: ELISA, mAb coated, variant 0-5 nM
T5 construct: mmh-tagged variant hPCSK9
Method: as §1

[6] = target: T6, hPCSK9(T162R) (human, UniProt Q8NBP7 31-692); test: ELISA, mAb coated, variant 0-5 nM
T6 construct: mmh-tagged variant hPCSK9
Method: as §1

[7] = target: T7, hPCSK9(R237E) (human, UniProt Q8NBP7 31-692); test: ELISA, mAb coated, variant 0-5 nM
T7 construct: mmh-tagged variant hPCSK9
Method: as §1

[8] = target: T8, hPCSK9(R194E) (human, UniProt Q8NBP7 31-692); test: ELISA, mAb coated, variant 0-5 nM
T8 construct: mmh-tagged variant hPCSK9
Method: as §1

[9] = target: hPCSK9(P70A) (human, UniProt Q8NBP7 31-692); test: ELISA, mAb coated, variant 0-5 nM
Method: as §1

[10] = target: T9, hPCSK9(F216L) (human, UniProt Q8NBP7 31-692); test: ELISA, mAb coated, variant 0-5 nM
T9 construct: mmh-tagged variant hPCSK9
Method: as §1

[11] = target: T10, hPCSK9(E366K) (human, UniProt Q8NBP7 31-692); test: ELISA, mAb coated, variant 0-5 nM
T10 construct: mmh-tagged variant hPCSK9
Method: as §1

[12] = target: T11, hPCSK9(R215E) (human, UniProt Q8NBP7 31-692); test: ELISA, mAb coated, variant 0-5 nM
T11 construct: mmh-tagged variant hPCSK9
Method: as §1

[13] = target: T12, hPCSK9(S147F) (human, UniProt Q8NBP7 31-692); test: ELISA, mAb coated, variant 0-5 nM
T12 construct: mmh-tagged variant hPCSK9
Method: as §1

[14] = target: T13, hPCSK9(D192R) (human, UniProt Q8NBP7 31-692); test: ELISA, mAb coated, variant 0-5 nM
T13 construct: mmh-tagged variant hPCSK9
Method: as §1

[15] = target: hPCSK9(P70A, S147F) (human, UniProt Q8NBP7 31-692); test: ELISA, mAb coated, variant 0-5 nM
Method: as §1

[16] = target: T14, Human PCSK9-myc-myc-his (human, UniProt Q8NBP7 31-692); test: ELISA, mAb coated, variant 0-5 nM
T14 construct: also called hPCSK9-mmh; hPCSK9
Method: as §1

[17] = target: T15, hPCSK9(E159R) (human, UniProt Q8NBP7 31-692); test: ELISA, mAb coated, variant 0-5 nM
T15 construct: mmh-tagged variant hPCSK9
Method: as §1

[18] = target: T16, hPCSK9(S153R) (human, UniProt Q8NBP7 31-692); test: ELISA, mAb coated, variant 0-5 nM
T16 construct: mmh-tagged variant hPCSK9
Method: as §1

[19] = target: T17, hPCSK9(D343R) (human, UniProt Q8NBP7 31-692); test: ELISA, mAb coated, variant 0-5 nM
T17 construct: mmh-tagged variant hPCSK9
Method: as §1

[20] = target: T18, hPCSK9(E366K, V380M) (human, UniProt Q8NBP7 31-692); test: ELISA, mAb coated, variant 0-5 nM
T18 construct: mmh-tagged variant hPCSK9
Method: as §1

[21] = target: T19, hPCSK9(V380M) (human, UniProt Q8NBP7 31-692); test: ELISA, mAb coated, variant 0-5 nM
T19 construct: mmh-tagged variant hPCSK9
Method: as §1

[22] = target: T20, hPCSK9(S127R) (human, UniProt Q8NBP7 31-692); test: ELISA, mAb coated, variant 0-5 nM
T20 construct: mmh-tagged variant hPCSK9
Method: as §1

[23] = target: T21, hPCSK9(D238R) (human, UniProt Q8NBP7 31-692); test: ELISA, mAb coated, variant 0-5 nM
T21 construct: mmh-tagged variant hPCSK9
Method: as §1

[24] = target: T14, Human PCSK9-myc-myc-his; test: ELISA, mAb coated, 1.7 nM antigen
[25] = target: T22, tagged rhesus monkey (Macaca mulata) PCSK9 (rhesus monkey (Macaca mulata), UniProt A8T666 31-692); test: competition ELISA vs EGF-A-hFc, pH 7.2
T22 construct: also called mmPCSK9-mmh; mmPCSK9
T22 sequence (A8T666 31-692 limits assumed): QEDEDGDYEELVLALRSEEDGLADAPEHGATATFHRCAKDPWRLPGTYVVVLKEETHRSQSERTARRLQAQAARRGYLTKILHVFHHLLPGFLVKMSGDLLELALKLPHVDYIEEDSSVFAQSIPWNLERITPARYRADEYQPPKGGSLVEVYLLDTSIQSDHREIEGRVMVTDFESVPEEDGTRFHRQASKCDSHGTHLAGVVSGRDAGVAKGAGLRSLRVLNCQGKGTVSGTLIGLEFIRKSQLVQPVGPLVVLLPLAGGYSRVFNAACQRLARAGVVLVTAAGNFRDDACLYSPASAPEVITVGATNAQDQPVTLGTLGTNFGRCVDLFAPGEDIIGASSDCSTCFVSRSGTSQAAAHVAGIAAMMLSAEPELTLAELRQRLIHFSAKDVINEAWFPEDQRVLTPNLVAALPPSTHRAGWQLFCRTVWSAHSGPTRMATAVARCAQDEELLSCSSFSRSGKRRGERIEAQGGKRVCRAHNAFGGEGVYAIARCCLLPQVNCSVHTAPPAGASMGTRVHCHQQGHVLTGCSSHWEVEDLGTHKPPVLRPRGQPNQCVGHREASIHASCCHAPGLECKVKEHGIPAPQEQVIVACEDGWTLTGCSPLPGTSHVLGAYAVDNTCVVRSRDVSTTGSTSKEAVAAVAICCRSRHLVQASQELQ
Method: (§2) Briefly, hLDLR-ecto, hLDLR EGF-A-hFc or hLDLR EGF-AB-hFc, each at 2 μg/ml, was coated on a 96-well plate in PBS buffer overnight at 4° C., and nonspecific binding sites blocked with BSA. […] The equilibrated sample solutions were transferred to receptor or receptor fragment coated plates.

[26] = target: T23, mouse PCSK9, myc-myc-his tagged (mouse, UniProt Q80W65 35-694); test: competition ELISA vs EGF-A-hFc, pH 7.2
T23 construct: also called mPCSK9-mmh; mPCSK9
Method: as §2

B1: H1H316P (antibody, V domains shown)
VH: EVQLVESGGGLVQPGGSLRLSCAASGFTFNNYAMNWVRQAPGKGLDWVSTISGSGGTTNYADSVKGRFIISRDSSKHTLYLQMNSLRAEDTAVYYCAKDSNWGNFDLWGRGTLVTVSS
VL: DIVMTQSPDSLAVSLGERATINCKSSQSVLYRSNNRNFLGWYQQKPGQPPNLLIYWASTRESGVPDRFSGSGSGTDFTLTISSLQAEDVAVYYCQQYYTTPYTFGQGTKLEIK
notes: Fully human mAb made in CHO cells; also called mAb316P
> 1.5 od: OD [1] | OD [2] | OD [3] | OD [4] | OD [5] | OD [6] | OD [7] | OD [8] | OD [9] | OD [10] | OD [11] | OD [12] | OD [13] | OD [14] | OD [15] | OD [16] | OD [17] | OD [18] | OD [19] | OD [20] | OD [21] | OD [22] | OD [24]
< 0.25 nM: IC50 [25] | IC50 [26]
< 0.7 od: OD [23]

B2: H1M300N (antibody, V domains shown)
VH: EMQLVESGGGLVQPGGSLRLSCAASGFTFSSHWMKWVRQAPGKGLEWVANINQDGSEKYYVDSVKGRFTISRDNAKNSLFLQMNSLRAEDTAVYYCARDIVLMVYDMDYYYYGMDVWGQGTTVTVSS
VL: not shown
notes: Fully human version made in CHO cells
0.256 nM: IC50 [25]
0.7 to 1.5 od: OD [11] | OD [20]
> 1.5 od: OD [1] | OD [2] | OD [3] | OD [4] | OD [5] | OD [6] | OD [7] | OD [8] | OD [9] | OD [10] | OD [12] | OD [13] | OD [14] | OD [15] | OD [16] | OD [17] | OD [18] | OD [19] | OD [21] | OD [22] | OD [23] | OD [24]
> 33 nM: IC50 [26]
